B1: phi3T AimR receptor with C-terminal 6xHis-tag (purified) (receptor)
chain: MIKNECEKDNQLAARLAKLAGYEKVNGFYKFVNTPEKEMENLGGLLKIVKNLFPDSEEQLLSEYFLELDPNKKCARQSVEYSDINQWDTLTDKIIINLCNSKNSTSQEWGKVYSLHRKLNKNEISLNDAIRESGKCKIKSAEMLFFSNAMLMYAYLNIGEFGLMKSTSKLLEFDDLPEGFIKESFKSRVSMLEANISLNENSLLEARQHSNRAIENSNVNRICFFAYLTIGNTLIFEDYDEAKKAYIKGQKYAKNPVHQEMLDGALCFLSNIWKKENQWVNYNSDNIKYLQLRAFYYINQGNIEEATEILDELSSRDQDENELGFYYYYKGLISQDKTDYYKSIRYFKKSDDKYFIQLPLLQLERMGADLELLNLISIHHHHHH
notes: Expressed in E. coli BL21(DE3) from pET28a and purified in two steps; Migrates as a homodimer in gel filtration without peptide and as a monomer with SAIRGA; also called His-tagged AimR; purified AimR
B2: GMPRGA peptide (spBeta arbitrium peptide, mature AimP) (peptide)
peptide: GMPRGA
notes: Synthetic peptide, 98% purity, desalted (Peptide 2.0 Inc.); also called spBeta-derived GMPRGA peptide

Legend:
[1] = target: the molecule itself; experiment: analytical gel filtration (Superdex 200 Increase), self-association
Experimental: Pure AimR was injected to an analytical gel filtration column (Superdex_200_Increase_10/30 GL, GE Healthcare) equilibrated with buffer containing 20 mM Tris pH 8, 0.3 M NaCl, 2 mM TCEP. […] The column was calibrated (inset of FIG. 4C) by monitoring the migration positions of the following known proteins/polymers: blue dextran (2000 kDa), Thyroglobulin (669 kDa), Apoferritin (443 kDa), beta-amylase (200 kDa), alcohol dehydrogenase (150 kDa), Albumin (66 kDA) and Carbonic anhydrase (29 kDa).

[2] = target: B1; experiment: microscale thermophoresis (MST), label-free
Experimental: Two-step purified 6×His-tagged AimR stored in Tris/NaCl buffer (50 mM Tris pH 8.0, 150 mM NaCl, 2 mM TCEP) at −80° C. was thawed on ice and centrifuged at 21,000 g for 10 minutes at 4° C. prior to analysis. […] AimR was diluted to 200 nM and was incubated with 16 different peptide concentrations varying between 9-4000 nM, which were prepared in Tris/NaCl buffer containing 0.1% [v/v] Pluronic acid (NanoTemper). Roughly 3 μl were loaded into NT.LabelFree Zero-Background Premium Coated Capillaries (NanoTemper) and inserted into a Monolith NT.LabelFree device (NanoTemper). MST experiments were performed at 60% MST power (infra-red laser) and 20% LED power at 23° C. using the Monolith NT.LabelFree instrument (Nanotemper). Ratios between normalized initial fluorescence and post-temperature-jump and thermophoresis were calculated and averaged from 3 independent runs (runs were incubated for 20 minutes at room temperature before the measurement).

Binder | binding result [1] | binding result [2]
B1 | binds | 
B2 |  | no binding (tested: peptide 9-4000 nM, AimR 200 nM)

Reference: patent US20190264213A1 (YEDA RESEARCH AND DEVELOPMENT, published 2019)
